According to US20090169520A1, “Compounds, Pharmaceutical Compositions and Therapeutic Methods of Preventing and Treating Diseases and Disorders Associated With Amyloid Fibril Formation” (YISSUM RESEARCH DEVELOPMENT COMPANY OF THE HEBREW …, priority 2005, published 2009):
Marks after values point to notes of the source that are not given here.

T1: Amylin (Homo sapiens, UniProt P10997)
T1 sequence (P10997 34-70 limits assumed): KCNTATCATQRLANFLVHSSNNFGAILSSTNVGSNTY

B1: BChE: Purified human BChE from human serum (Sigma) (protein, listed as Homo sapiens)
chain: MHSKVTIICIRFLFWFLLLCMLIGKSHTEDDIIIATKNGKVRGMNLTVFGGTVTAFLGIPYAQPPLGRLRFKKPQSLTKWSDIWNATKYANSCCQNIDQSFPGFHGSEMWNPNTDLSEDCLYLNVWIPAPKPKNATVLIWIYGGGFQTGTSSLHVYDGKFLARVERVIVVSMNYRVGALGFLALPGNPEAPGNMGLFDQQLALQWVQKNIAAFGGNPKSVTLFGESAGAASVSLHLLSPGSHSLFTRAILQSGSFNAPWAVTSLYEARNRTLNLAKLTGCSRENETEIIKCLRNKDPQEILLNEAFVVPYGTPLSVNFGPTVDGDFLTDMPDILLELGQFKKTQILVGVNKDEGTAFLVYGAPGFSKDNNSIITRKEFQEGLKIFFPGVSEFGKESILFHYTDWVDDQRPENYREALGDVVGDYNFICPALEFTKKFSEWGNNAFFYYFEHRSSKLPWPEWMGVMHGYEIEFVFGLPLERRDNYTKAEEILSRSIVKRWANFAKYGNPNETQNNSTSWPVFKSTEQKYLTLNTESTRIMTKLRAQQCRFWTSFFPKVLEMTGNIDEAEWEWKAGFHRWNNYMMDWKNQFNDYTSKKESCVGL
B2: AChE-S: recombinant human ACHE-S, prepared from an ACHE cDNA clone (Sigma) (protein, listed as Homo sapiens)
chain: MRPPQCLLHTPSLASPLLLLLLWLLGGGVGAEGREDAELLVTVRGGRLRGIRLKTPGGPVSAFLGIPFAEPPMGPRRFLPPEPKQPWSGVVDATTFQSVCYQYVDTLYPGFEGTEMWNPNRELSEDCLYLNVWTPYPRPTSPTPVLVWIYGGGFYSGASSLDVYDGRFLVQAERTVLVSMNYRVGAFGFLALPGSREAPGNVGLLDQRLALQWVQENVAAFGGDPTSVTLFGESAGAASVGMHLLSPPSRGLFHRAVLQSGAPNGPWATVGMGEARRRATQLAHLVGCPPGGTGGNDTELVACLRTRPAQVLVNHEWHVLPQESVFRFSFVPVVDGDFLSDTPEALINAGDFHGLQVLVGVVKDEGSYFLVYGAPGFSKDNESLISRAEFLAGVRVGVPQVSDLAAEAVVLHYTDWLHPEDPARLREALSDVVGDHNVVCPVAQLAGRLAAQGARVYAYVFEHRASTLSWPLWMGVPHGYEIEFIFGIPLDPSRNYTAEEKIFAQRLMRYWANFARTGDPNEPRDPKAPQWPPYTAGAQQYVSLDLRPLEVRRGLRAQACAFWNRFLPKLLSATDTLDEAERQWKAEFHRWSSYMVHWKNQFDHYSKQDRCSDL
B3: ASP63: synthetic AChE-S C-terminal peptide, mimics residues 548-610 in hAChE (peptide)
chain: PLEVRRGLRAQACAFWNRFLPKLLSATDTLDEAERQWKAEFHRWSSYMVHWKNQFDHYSKQDR
modifications: ASP63 Synthetic peptide
notes: synthetic AChE-S C-terminal peptide, mimics residues 548-610 in hAChE
B4: hRBC AChE: human erythrocytes ACHE compared with serum BChE in Table 8 (protein)
chain: EGREDAELLVTVRGGRLRGIRLKTPGGPVSAFLGIPFAEPPMGPRRFLPPEPKQPWSGVVDATTFQSVCYQYVDTLYPGFEGTEMWNPNRELSEDCLYLNVWTPYPRPTSPTPVLVWIYGGGFYSGASSLDVYDGRFLVQAERTVLVSMNYRVGAFGFLALPGSREAPGNVGLLDQRLALQWVQENVAAFGGDPTSVTLFGESAGAASVGMHLLSPPSRGLFHRAVLQSGAPNGPWATVGMGEARRRATQLAHLVGCPPGGTGGNDTELVACLRTRPAQVLVNHEWHVLPQESVFRFSFVPVVDGDFLSDTPEALINAGDFHGLQVLVGVVKDEGSYFLVYGAPGFSKDNESLISRAEFLAGVRVGVPQVSDLAAEAVVLHYTDWLHPEDPARLREALSDVVGDHNVVCPVAQLAGRLAAQGARVYAYVFEHRASTLSWPLWMGVPHGYEIEFIFGIPLDPSRNYTAEEKIFAQRLMRYWANFARTGDPNEPRDPKAPQWPPYTAGAQQYVSLDLRPLEVRRGLRAQACAFWNRFLPKLLSATDTLDEAERQWKAEFHRWSSYMVHWKNQFDHYSKQDRCSDL
B5: BChE K variant: BChE variant with a single C-terminal substitution (A539T) (protein, UniProt P06276 29-602, looked up, variant A539T)
Cholinesterase: EDDIIIATKNGKVRGMNLTVFGGTVTAFLGIPYAQPPLGRLRFKKPQSLTKWSDIWNATKYANSCCQNIDQSFPGFHGSEMWNPNTDLSEDCLYLNVWIPAPKPKNATVLIWIYGGGFQTGTSSLHVYDGKFLARVERVIVVSMNYRVGALGFLALPGNPEAPGNMGLFDQQLALQWVQKNIAAFGGNPKSVTLFGESAGAASVSLHLLSPGSHSLFTRAILQSGSFNAPWAVTSLYEARNRTLNLAKLTGCSRENETEIIKCLRNKDPQEILLNEAFVVPYGTPLSVNFGPTVDGDFLTDMPDILLELGQFKKTQILVGVNKDEGTAFLVYGAPGFSKDNNSIITRKEFQEGLKIFFPGVSEFGKESILFHYTDWVDDQRPENYREALGDVVGDYNFICPALEFTKKFSEWGNNAFFYYFEHRSSKLPWPEWMGVMHGYEIEFVFGLPLERRDNYTKAEEILSRSIVKRWANFAKYGNPNETQNNSTSWPVFKSTEQKYLTLNTESTRIMTKLRAQQCRFWTSFFPKVLEMTGNIDETEWEWKAGFHRWNNYMMDWKNQFNDYTSKKESCVGL

How the values were obtained:
Amylin = target: T1, Amylin; experiment: Amylin amyloid fibril formation, Thioflavin T fluorescence; assay type: biochemical; conditions: 20 μM amylin
Protocol: FIG. 6 is a graph illustrating the effect of BChE in preventing amylin amyloid fibril formation. Amylin at a concentration of 20 μM was incubated with Thiofalvin T (at a concentration of 1 μM) and the formation of amyloid fibril was measured by following the Thiofalvin T fluorescence intensity [excitation (450 nm); emission (485 nm)] in the presence or absence of 0.24 μM BChE (purified from pooled human plasma). Note that the addition of BChE increases the lag time for amylin fibrillation from 30 minutes to 110 minutes.
To test the ability of BChE to prevent amylin amyloid fibril formation, the present inventors have tested the rate of amylin fibrillation (at a concentration of 20 μM) in the presence or absence of 0.24 μM BChE (purified from pooled human serum). As is shown in FIG. 6, BChE completely attenuated the formation of amylin fibrils for 100 minutes, and increased the lag time of amyloid fibril formation from 30 minutes to 110 minutes.

Aβ (1-40) peptide = target: T2, Aβ (1-40) peptide (Homo sapiens, UniProt P05067); experiment: In vitro formation of amyloid fibril from Aβ (1-40), Thioflavin T fluorescence; assay type: biochemical; conditions: for effect on Aβ fibril formation (in words): 33 μM Aβ; for Lag (fold change) / Rate (fold change): relative to No addition, asterisk = statistically significant
T2 construct: synthetic Aβ (1-40) peptide; purchased Biosource, Camarillo, Calif., USA; host or cells: chemical synthesis
T2 sequence (P05067 672-711 limits assumed): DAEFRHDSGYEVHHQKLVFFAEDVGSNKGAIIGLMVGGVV
Excerpt: In vitro formation of amyloidfibril—In vitro formation of amyloid fibril was in the presence of the synthetic Aβ (1-40) peptide (Biosource, Camarillo, Calif., USA) as a precursor. The reporter molecule was Thioflavin T (ThT) (Sigma, Cat. No. T-3516, Jerusalem, Israel), a benzothiazole dye that undergoes a shift in its excitation spectrum (from 340 nm to 450 nm) when interacting with β-sheet amyloid structures. The resultant ThT fluorescence signal is proportional to the amount of amyloid formed (LeVine, 1993). A stock solution of Aβ in dimethylsulfoxide (DMSO) was diluted with phosphate-buffered saline (PBS) containing 0.02% Na-Azid to a final concentration of 162 μM and 20 μl of the diluted Aβ solution was placed in each well of a 96 multiwell plate (Nunc, Roskilde, Denmark). After 20 minutes of pre-incubation at room temperature of the Aβ samples (20 μl), 80 μl of 1.25 μM ThT in 50 mM glycine buffer, pH 8.5, was added. Incubation was with shaking at 200 rpm for 6 to 8 hours at the noted temperatures. Fluorescence was measured continuously or at 30-40 minute intervals, using a Spectro-fluorometer (Tecan, Maennedorf, Switzerland). Excitation and emission wavelengths were 450 nm and 485 nm, respectively. Enhancement of the fibrillation process by the different combinations of water-dissolved cholinesterases and peptides mimicking fragments thereof, was evaluated by dissecting the time curves into two stages: the lag before the onset of the fluorescence increase (the nucleation process) and the average rate of fluorescence increase at several time points (rate of fibrils formation). Statistics analysis was performed using the Kaleidagraph Software (Reading, Pa., USA).
BChE attenuates amyloid fibrils formation—Amyloid fibril (Aβ) formation was quantified by measuring changes in ThT fluorescence. As predicted, Aβ fibrils were spontaneously formed in vitro provided that the Aβ peptide was present above 5 μM. […] Reactions were performed in the absence or presence of increasing concentrations of purified human BChE (SEQ ID NO:2; FIG. 1a), recombinant ACHE-S (SEQ ID NO:6; FIG. 1b) or both (FIGS. 1c and d). […] Due to the complex kinetics of the fibril formation process the apparent rate of change in ThT fluorescence was repeatedly determined during the exponential phase of increase in its signal (at 390±20 minutes). […] In contrast, addition of similar doses of AChE to Aβ, predictably shortened by half the lag time prior to fibril formation, again in a dose dependent manner (FIG. 1e). The lag period therefore decreased from 240 minutes to 150 minutes and the maximal rate of fibril formation increased from 0.057 to 0.116 fluorescence units (FU)/min for Aβ alone as compared to Aβ in the presence of 0.36 μM AChE-S (FIG. 1b and Table 7, hereinbelow). When increasing doses of hBChE were added to a combined mix of 33 μM Aβ with 0.36 μM AChE-S, a dose-dependent interference with the fibril formation process was observed (FIG. 1c and 2a). Thus, BChE is capable of reducing the rate of fibrillation of Aβ alone, or Aβ which is formed in the presence of AChE.

[1] = Rate of hydrolysis of AThCh/BThCh by cholinesterases; assay type: biochemical; conditions: for Rate of hydrolysis of AThCh/BThCh: average of three experiments
Protocol: BChE biochemistry—Serum cholinesterase catalytic activity measurements are based on a spectrophotometric method adapted to a microtiter plate assay. Butyrylthiocholine (BTCh, Sigma) hydrolysis rates are measured following 20 minutes incubation with 5×10^−5 M tetraisopropyl pyrophosphoramide (iso-OMPA, Sigma), a specific BChE inhibitor or 10^−5 M 1,5-bis(4-allyldimethylammoniumphenyl) pentan-[…] dibromide (BW284c51, Sigma, A9013), a specific AChE inhibitor. Addition of both inhibitors reduces hydrolysis to the rate of spontaneous hydrolysis measured in control reactions lacking enzyme or substrate, attesting to the specificity of these serum activities. Readings at 405 nm are repeated at 2-minute intervals for 20 minutes. Non-enzymatic hydrolysis of substrate is subtracted from the total rate of hydrolysis. Enzyme activity is calculated using the molar extinction coefficient for 5-thio-2-nitrobenzoate [13,600 M^−1×cm^−1] [Ellman, G. L. et al. (1961) Biochem. Pharmacol. 7:88-95].
In addition, BChE is soluble and thus accessible to circulating ACh. Moreover, the substrate of preference of BChE is different than that of ACHE. Thus, over the range of substrate concentrations 0.1 to 25 mM, the ratio of hydrolysis of AThCh relative to BThCh differs between the enzymes (Table 8, hereinbelow).

[2] = single C-terminal substitution (A539T); Bartels et al., 1992; cited from earlier work

Molecule	effect on Aβ fibril formation (in words) (Aβ (1-40) peptide; ThT fluorescence)	Lag (fold change) (Aβ (1-40) peptide)	Rate (fold change) (Aβ (1-40) peptide)	Rate of hydrolysis of AThCh/BThCh ([1]; Substrate 0.1 mM)	Rate of hydrolysis of AThCh/BThCh ([1]; Substrate 25.0 mM)	other results
B1	prolonged the lag and reduced the apparent rate of amyloid formation	1.4* fold change	0.3* fold change	0.45	0.20	time for which formation of amylin fibrils was completely attenuated (Amylin; 0.24 μM BChE): 100 min; lag time of amylin amyloid fibril formation (Amylin; 1 μM ThT, 0.24 μM BChE (without BChE 30 minutes)): 110 min; time for which fibril formation was totally prevented (Aβ (1-40) peptide; 0.4 μM BChE added to 33 μM Aβ): over 600 minutes; concentration needed for complete attenuation of Aβ fibrillation (Aβ (1-40) peptide; attenuation for 400 minutes of incubation, ThT fluorescence): 30000 ng/mL; BChE capacity to hydrolyze ACh, fold lower than that of AChE ([1]; increased / high ACh concentrations (as in 25 mM)): 12 fold; BChE capacity of ACh hydrolysis in the circulation, fold lower than that of AChE ([1]; normal circumstances, low ACh): ca. 80 fold
B2		0.6* fold change	2.1* fold change			maximal rate of fibril formation (Aβ (1-40) peptide; Aβ in the presence of 0.36 μM AChE-S (Aβ alone 0.057)): 0.116 FU/min; lag period prior to fibril formation (Aβ (1-40) peptide; Aβ in the presence of 0.36 μM AChE-S (Aβ alone 240 minutes)): 150 min
B3	no significant effect on amyloid formation	1.5 fold change	0.7 fold change			
B4				120	7.2	AThCh hydrolysis ratio difference of AChE:BChE ([1]; at 0.1 mM substrate): 245 fold; AThCh hydrolysis ratio difference of AChE:BChE ([1]; at 25 mM substrate): 36 fold
B5						reduction in hydrolytic activity [2]: 30%
